This is an account of results in patent publication US9213031B2, “Use of Cbl as biomarker for identifying subject suitable for treatment with anti-c-Met antibody” (SAMSUNG ELECTRONICS CO., LTD., priority 2012, dated 2015).

In one series the test system is HCC827 ER15 cells. Conditions: HCC827 ER15, 72 hours, L3-1Y 0.14 μg/ml, Erlotinib 10 nm.
In a further series the test system is EBC-1 tumor. The experiment in a line: Tumor xenograft model, EBC-1. To be noted: EBC-1 xenograft, 5 mg/kg I.V. once/week, 28th day. Type of series: in vivo, BALB/c nude mice. How it is done:
(§1) For use in examining in vivo effects of anti-c-Met antibody on tumor growth, male BALB/c nude mice, 5˜6 weeks old, were xenografted with a tumor (all experiments were carried out in Pharmalegacy, China). For at least one week before the transplantation, the mice were acclimated.
(§2) Then, the mice were anesthetized with 1-2% isofuran and xenografted subcutaneously in the right flank with 5×10^6 cells of EBC-1 or HS746T. Seven days after the grafting, the tumors measured 50 mm3 or greater on average. The mice were divided into the following three groups: 5D5 (5 mg/kg I.V. once/week) treated, L3-1Y (5 mg/kg I.V. once/week) treated, and vehicle (PBS 0.2 ml I.V. once/week) treated (control). Each group was composed of 15 mice.
(§3) Over a total of five weeks, volumes and weights of the tumors were measured […]. Tumor volume (V) was calculated according to the following formula: V (mm3)={Long Axis Length (mm)×(Small Axis Length (mm))2}/2.
(§4) L3-1Y (1) is an antibody based on hIgG1 with the Th7 hinge (usually referred to just as L3-1Y) while L3-1Y (2) contains the same epitope but has the hIgG2 backbone. […] Tumor suppression of each of the antibodies was expressed as percentages of volume reduction compared to the tumor volume on the 28th day of the vehicle-treated group (0%) in Table 3 for EBC-1 and Table 4 for HS746T.

For another series, the system named is HS746T tumor. As to the kind of experiment: Tumor xenograft model, HS746T. It counts as in vivo, BALB/c nude mice. Conditions: 5 mg/kg I.V. once/week, 28th day. The method, then: as §1, §2, §3, §4

Method for HCC827 ER15 cells: HCC827 ER15, which expresses c-Met at a high level but Cbl at a relatively low level was used in assay for the apoptotic effect of a combination dosage of an anti-c-Met antibody and an EGFR antagonist.
Then, cell viability was measured in the same manner as in Example 1.4.

Regarding `C#Cc1cccc(Nc2ncnc3cc(OCCOC)c(OCCOC)cc23)c1` [Erlotinib], the “cell viability as percentage of untreated control” value in the series with HCC827 ER15 cells is listed as “almost no apoptotic effects”.

B1: L3-1Y (2): contains the same epitope as L3-1Y but has the hIgG2 backbone (antibody)
heavy: EVQLVESGGGLVQPGGSLRLSCAASGFTFTDYYMSWVRQAPGKGLEWLGFIRNKANGYTTEYSASVKGRFTISRDNSKNTLYLQMNSLRAEDTAVYYCARDNWFAYWGQGTLVTVSSASTKGPSVFPLAPCSRSTSESTAALGCLVKDYFPEPVTVSWNSGALTSGVHTFPAVLQSSGLYSLSSVVTVPSSNFGTQTYTCNVDHKPSNTKVDKTVERKCCVECPPCPAPPVAGPSVFLFPPKPKDTLMISRTPEVTCVVVDVSHEDPEVQFNWYVDGVEVHNAKTKPREEQFNSTFRVVSVLTVVHQDWLNGKEYKCKVSNKGLPAPIEKTISKTKGQPREPQVYTLPPSREEMTKNQVSLTCLVKGFYPSDIAVEWESNGQPENNYKTTPPMLDSDGSFFLYSKLTVDKSRWQQGNVFSCSVMHEALHNHYTQKSLSLSPGK
light: DIQMTQSPSSLSASVGDRVTITCKSSQSLLASGNQNNYLAWYQQKPGKAPKMLIIWASTRVSGVPSRFSGSGSGTDFTLTISSLQPEDFATYYCQQSYSRPYTFGQGTKVEIKRTVAAPSVFIFPPSDEQLKSGTASVVCLLNNFYPREAKVQWKVDNALQSGNSQESVTEQDSKDSTYSLSSTLTLSKADYEKHKVYACEVTHQGLSSPVTKSFNRGEC
For B1, the “At d28:TV; tumor suppression as percentage of volume reduction compared to vehicle-treated group” value was 87.0% in the series on EBC-1 tumor and “Regression” in the series with HS746T tumor.
